Results taken from US20240269194A1 (CITY OF HOPE, published 2024).

Target: [^68Ga]-DO3A-VS-Cys40-labeled Exendin-4 (UniProt P26349 48-86)
Assay: saturation binding of the radiolabeled probe on INS-1 cells

B1: GLP-1R expressed by INS-1 cells (receptor)
chain: GPRPQGATVSLSETVQKWREYRHQCQRFLTEAPLLATGLFCNRTFDDYACWPDGPPGSFVNVSCPWYLPWASSVLQGHVYRFCTAEGIWLHKDNSSLPWRDLSECEESKQGERNSPEEQLLSLYIIYTVGYALSFSALVIASAILVSFRHLHCTRNYIHLNLFASFILRALSVFIKDAALKWMYSTAAQQHQWDGLLSYQDSLGCRLVFLLMQYCVAANYYWLLVEGVYLYTLLAFSVFSEQRIFKLYLSIGWGVPLLFVIPWGIVKYLYEDEGCWTRNSNMNYWLIIRLPILFAIGVNFLVFIRVICIVIAKLKANLMCKTDIKCRLAKSTLTLIPLLGTHEVIFAFVMDEHARGTLRFVKLFTELSFTSFQGFMVAVLYCFVNNEVQMEFRKSWERWRLERLNIQRDSSMKPLKCPTSSVSSGATVGSSVYAATCQNSCS
notes: whole, on cells; Endogenous receptor on INS-1 cells and INS-1 tumors in mice; also called GLP-R1
Kd: 8.6 nM
